Where two headings read alike, the source gives them in different places.

The source of these data is US20220265772A1, “USES OF DAN FAMILY BMP ANTAGONISTS FOR INHIBITING OCULAR NEOVASCULARIZATION AND TREATING OCULAR CONDITIONS” (9636137 Canada Inc., priority 2019, published 2022).

Data set [1] concerns retinal vascular development. The format is in vivo, mouse. As for the experimental part: Animals were anaesthetized with isofluorane. A 10 μL Hamilton syringe with a glass-pulled capillary was inserted with a 45° injection angle into the vitreous. When accessing the role of DAND5 developmentally, animals were injected at P1 (DAND5:100 ng; or PBS: 1 μl) and were euthanized at P5 to quantify vascular growth. The DAND5 used for the injection was a human recombinant DAND5/COCO biologically active fragment produced in E. coli and purified by SDS-PAGE (Arg23-Ala189 with an N-terminal Met, predicted 18.2 kDa monomer, R&D systems; 3047-CC-050). During the neovascularization phase of OIR, animals were injected at P12 (2 μL) before sacrifice at P17 for quantification of neovascularization. For adult mice and laser-induced neovascularization, intravitreal injections were performed under a surgical microscope. Mice were anaesthetized with isofluorane. Pupils were dilated using 1% tropicamide. A 33-gauge needle was inserted from the limbus with a 45° injection angle into the vitreous. The direction and location of the needle was monitored through the surgical microscope.
Ocular globes were initially fixed for 15 min in 4% paraformaldehyde (PFA). Retinas or choroids were collected after eyes dissection in PBS and blocked 1 h in PBS 3% BSA 0.1% Triton X-100™. Fixation was prolonged in 1% PFA overnight for choroid extraction or eyes sectioning. Prior to sectioning, eyes were maintained in sucrose gradients (10-30%), cryo-preserved in a matrix gel and sliced in 14 μm sections on a cryostat (Leica™ CM3050S). Staining with either FITC-labeled isolectin GS 1B4 (Life technologies corporation), rhodamine phalloidin (Cedarlane Laboratories), phospho-histone H3 (Abcam), Collagen IV (Abcam) or cleaved caspase-3 (Cell Signaling) antibodies were performed on whole and/or sectioned retinas/choroids. Retinas and choroids were then mounted in fluoromount aqueous medium (Sigma-Aldrich). Quantitative analysis of tufts, vaso-obliterated or vessel areas were performed using imageJ/Swift_NV™ as previously described (1). Neovascular tuft formation was quantified by comparing the number of pixels in the affected areas with the total number of pixels in the retina. The avascular area in the retina was measured in the same way using an anti-DAND5/COCO polyclonal goat IgG antibody (AF3047, R&D systems).
As DAND5 prevents VEGF-induced EC sprouting, proliferation and migration, we evaluated whether it could inhibit retinal vascular development. Newborn mouse pups (P1) received intravitreal injections of recombinant DAND5 (100 ng), and retinas were harvested after 4 days (P5) (FIG. 2A).
Blood vessels constrict in the course of vessel regression and EC retract, leaving behind empty BM sleeves.

The test system of another data set is HUVECs. The experiment in a line: Free radicals / ROS in HUVECs (DCFDA, MitoSoxRed). Particulars: HUVECs. The format is cell-based, human. On the procedure:
FIG. 8 is a panel with graphs and pictures showing that Dand5 induces mitochondrial oxidative stress and alters ATP levels in HUVECs. FIG. 8A: HUVEC cells were treated with Dand5 in the presence or not of N-acetylcysteine (NAC) for up to 48 hours. Cells were then incubated with H2DCFDA. Hydrogen peroxide treated cells (H2O2) were included as a positive control. Fluorescence was measured at Ex: 485 nm and Em: 535 nm in a plate reader. Relative Fluorescence Units (RFU) were generated by normalizing the reading of each well to Hoescht staining (n=3,*p<0.05 **p<0.001). FIG. 8B: HUVEC cells were treated with Dand5 in for up to 48 hours. Cells were incubated with MitoSox Red. 3-nitro-proprionic acid (3-NP) treated cells were also examined as a positive control. Fluorescence was measured at Ex: 544 nm and Em: 590 nm. Relative Fluorescence Units (RFU) were generated by normalizing the reading of each well to Hoescht staining (n=3,*p<0.05). FIG. 8C: Primary culture of choroidal sprouts were treated with Dand5 in the absence or presence of NAC. FIG. 8D: Quantification of sprouting area by Image J. FIG. 8E: The ratio of NAD+ to NADH in whole cell extracts was determined using an Alcohol Dehydrogenase/Malate Dehydrogenase enzymatic cycling assay. Cells treated to hypoxic conditions (4% O2 for 3 hours) were included as a positive control (n=3,*p<0.05, **p<0.01). Likewise, glucose uptake was reduced in Dand5-treated HUVECs after 1 hour, while lactate levels were increased (lower panel). FIG. 8F: ATP levels were reduced in HUVECs exposed to Dand5 at 1, 6 and 24 hours (n=3,*p=0.05).
We exposed or not HUVECs to recombinant DAND5 and measured the concentration of free radicals using DCFDA and MitoSoxRed™. […] To further test this, we measure the NAD+/NADH ratio in cells treated or not with DAND5. […] Likewise, glucose uptake was reduced and lactate levels were increased in DAND5-treated HUVECs after 1 h (FIG. 8E, lower panel).

A further data set concerns LDHA. The experiment in a line: AMPLI-seq transcriptome analysis of HUVECs. It is filed as cell-based, human. Particulars: HUVECs treated for 6 and 16 h. As for the experimental part:
FIG. 7 is a panel with a schematic and graphs showing that DAND5 modifies the metabolic transcriptional program in cultured endothelial cells. HUVECs were treated for 6 and 16 h with either PBS or DAND5, before RNA extraction. RNA was reverse-transcribed and cDNA amplified using IonTorrent Ampliseq™ Transcriptome Human Gene Expression kit. FIG. 7A: Heat map of metabolism-related genes.
We performed AMPLI-seq analysis of HUVECs exposed or not to recombinant DAND5. […] Lactate de-hydrogenase A (LDHA) regulates lactate metabolism during anaerobic respiration.

[2] abbreviates: 100 ng at P1, P5, compared with PBS-injected eyes.

B1: DAND5: human recombinant DAND5/COCO biologically active fragment produced in E. coli, predicted 18.2 kDa monomer, R&D systems 3047-CC-050 (protein)
chain: MRPEPQSPRPQSWAAANQTWALGPGALPPLVPASALGSWKAFLGLQKARQLGMGRLQRGQDEVAAVTLPLNPQEVIQGMCKAVPFVQVFSRPGCSAIRLRNHLCFGHCSSLYIPGSDPTPLVLCNSCMPARKRWAPVVLWCLTGSSASRRRVKISTMLIEGCHCSPKA
On to B1, for which the “number of vascular branch points” value in data set [1] (100 ng at P1, P5) is reported as “reduced number of vascular branch points”. Besides, in data set [1] (setting [2]), the “microvessel density (ratio of vessel area to vascularized area)” value is “pronounced reduction” and the “vessel area (area covered by vessels)” value is “pronounced reduction of vessel area”. For the same molecule, in data set [1] (P1 injection, P5), the “EC proliferation in retinal vasculature (pH3)” value is given as “reduced EC proliferation”, the “empty type IV collagen (ColIV) BM sleeves” value is listed as “significantly higher numbers of empty type IV collagen (ColIV) BM sleeves” and the “inhibition of retinal neovascularization compared with VEGF inhibitor (mouse Flt1 Fc)” value is recorded as “significantly more pronounced than that of a VEGF inhibitor (mouse Flt1 Fc)”. Moreover, the “empty type IV collagen (ColIV) BM sleeves” value in data set [1] (P1 injection, P5, listed as Dand5) was “increased”. The blood vessel development entry in data set [1] (intravitreal 100 ng at P1, retinas at P5) is “dramatic inhibition of blood vessel development”. In data set [1] (mouse, in vivo), the “apoptosis in retinal vasculature (CC3)” value is “no change in apoptosis”; the “necroptosis in retinal vasculature (Rip3)” value is “no change in apoptosis (FIG. 11D, E) or necroptosis”; the “photoreceptor morphology or apoptosis” value was “did not affect”; the retinal pericyte coverage entry is listed as “did not affect retinal pericyte coverage”. In addition, the “free radicals (DCFDA)” value in the data set on HUVECs (24 h and 48 h post-treatment) is “induced elevation of free radicals 24 h and 48 h post-treatment”. Besides, the “mitochondrial reactive oxygen species (MitoSoxRed), time course” value in the data set with HUVECs (time-course analysis) is listed as “induced before cytosolic ROS”. Further, in the data set with LDHA, the LDHA expression result is listed as “down-regulation of LDHA”.
